Laboratory results taken from patent publication US20210230266A1 (SINGAPORE HEALTH SERVICES PTE, published 2021).

How the values were obtained:
Human IL-11 [1] = target: T1, Human IL-11 (human, UniProt P20809 22-199); test: SPR, BIAcore T200; KD from kd/ka
T1 construct: Recombinant human IL-11 (GenScript Cat. No. Z03108-1) or IL-11 secreted by human cells; the mature form is said to have 178 residues; also called recombinant human IL-11; endogenously produced IL-11
T1 sequence: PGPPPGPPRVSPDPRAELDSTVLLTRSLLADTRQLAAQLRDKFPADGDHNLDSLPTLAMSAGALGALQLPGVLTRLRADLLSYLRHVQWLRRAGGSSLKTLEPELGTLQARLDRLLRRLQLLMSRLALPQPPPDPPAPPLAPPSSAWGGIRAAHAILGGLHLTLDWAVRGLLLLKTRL
Experimental: (§1) Real-time binding kinetics of anti-IL-11 antibody BSN-3C6 to human and mouse IL-11 were measured by surface plasmon resonance (SPR) using a BIAcore T200 system (GE Healthcare, USA). The association and dissociation were measured for 250 s and 500 s respectively. The equilibrium binding constant KD was determined by the ratio of the binding rate constants kd/ka.

Mouse IL-11 [2] = target: T2, Mouse IL-11 (mouse, UniProt P47873 22-199, limits assumed); test: SPR, BIAcore T200; KD from kd/ka
T2 construct: also called murine IL-11; recombinant murine IL-11
T2 sequence (looked up): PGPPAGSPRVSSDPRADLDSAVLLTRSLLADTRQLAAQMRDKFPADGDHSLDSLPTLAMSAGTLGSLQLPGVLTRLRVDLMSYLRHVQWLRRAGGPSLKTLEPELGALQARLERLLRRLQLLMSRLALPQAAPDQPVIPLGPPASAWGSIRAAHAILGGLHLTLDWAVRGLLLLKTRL
Experimental: as §1

[3] = target: T3, FLAG-tagged human IL-11 expressed at the surface of transiently transfected cells (human, UniProt P20809 22-199); test: flow cytometry, hybridoma supernatant on cells transfected with pB1-IL11-hum.FL
T3 construct: also called IL-11 expressing HEK cells; target cells expressing human IL-11 at their surface; not shown: FLAG tag added to the N-terminus
T3 sequence: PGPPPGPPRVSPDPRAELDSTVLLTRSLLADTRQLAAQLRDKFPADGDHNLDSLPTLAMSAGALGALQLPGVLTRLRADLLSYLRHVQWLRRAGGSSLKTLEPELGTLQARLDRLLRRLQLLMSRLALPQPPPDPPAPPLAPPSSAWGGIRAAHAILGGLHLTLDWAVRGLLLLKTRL

Human IL-11 [4] = target: T1, Human IL-11; test: SPR, BIAcore T200; sensorgrams with association to 250 s and dissociation to 750 s
Experimental: as §1

Mouse IL-11 [5] = target: T2, Mouse IL-11; test: real-time binding kinetics; the text says SPR (BIAcore T200), the sheet's axis reads Binding [nm]
Experimental: as §1

[6] = target: T3, FLAG-tagged human IL-11 expressed at …; test: flow cytometry, hybridoma supernatant on cells transfected with pB1-IL11-hum.FL; relative to the anti-FLAG positive control (100%)
Human IL-11 [7] = target: T1, Human IL-11; test: told from inhibition of MMP2 secretion by TGFB1-stimulated primary human atrial fibroblasts (FIG. 54A)
Experimental: Primary human atrial fibroblasts were incubated with TGFB1 (5 ng/ml) and varying concentrations of humanised 3C6 clones. MMP2 secretion into the supernatant by human atrial fibroblasts was assessed to estimate the % of inhibition.

Row | Binder | GMFI [3] | binding relative to anti-FLAG positive control [6] [%] | binding result (Human IL-11 [7]) | other results
1 | BSN-3C6 (antibody, V domains shown, Mouse monoclonal antibody from a hybridoma; also called A6; anti-IL-11 antibody clone BSN-3C6) VH: EVQLQQSGPELVKPGASVKIPCKASGYTFTDYNMDWVKQSHGKSLEWIGDINPHNGGPIYNQKFTGKATLTVDKSSSTAYMELRSLTSEDTAVYYCARGELGHWYFDVWGTGTTVTVSS VL: DIVLTQSPASLAVSLGQRATISCRASKSVSTSGYSYIHWYQQKPGQPPKLLIYLASNLDSGVPARFSGSGSGTDFTLNIHPVEEEDAATYYCQHSRDLPPTFGGGTKLEIK | 222000 | 176 |  | Kd (Human IL-11 [1]): 4.14 nM; Kd (Mouse IL-11 [2]): 2.38 nM; koff (Human IL-11 [4]): 0.000635 s⁻¹; kon (Human IL-11 [4]): 153000 M⁻¹ s⁻¹; koff (Mouse IL-11 [5]): 0.000112 s⁻¹; kon (Mouse IL-11 [5]): 46900 M⁻¹ s⁻¹
2 | BSN-2G6 (antibody, V domains shown) VH: QVQLQESGPELVKPGASVKIPCKASGYTFTDYNMDWVKQSHGKSLEWIGNINPDNGGTIYNQKFKGKATLTVDKSSSTAYMELRSLTSEDTAVYFCAREGPYGYTWFAYWGQGTLDTVSA VL: DILLTQSPAILSVSPGERVSFSCRASQSIGTSIHWYQQRTNGSPRLLIKYASESISGIPSRFSGSGSGTDFTLSINSVESEDIADYYCQQSNSWPLTFGAGTKLELK | 28600 | 23 |  | 
3 | BSN-5B8 (antibody, V domains shown) VH: QVQLQQSGAELARPGTSVKLSCKASGYTFTSYGISWVKQRTGQGLEWIGEIYPRSSNTYYNEKFKGKATLTADKSSSTAYMELRSLTSEDSADYFCARANWVGYFDVWGTGTTVTVSS VL: DIVMTQSHKFMSTSVGDRVTITCKASQDVGTAVAWYQQKPGQSPKLLIYWASTRLTGVPDRFTGSGSGTYFTLTINNVQSEDLADYFCQQYSSYRTFGGGTKLEIK | 236000 | 188 |  | 
4 | BSN-7D4 (antibody, V domains shown, Mouse monoclonal antibody from a hybridoma; also called A12) VH: EVQLQQSGPELVKPGASVKISCKASGYTFTDYNMDWVKQSQGKRLEWIGDINPNYGGTIYNQKFKGKATLTVDKSSSTAYMELRSLTSEDTTVYYCTRGELGHWYFDVWGTGTTVTVSS VL: DIVLTQSPPSLTVSLGQRATISCRASKSVSASGYSYMHWYQQKPGQPPKLLIYLTSNLESGVPARFSGSGSGTDFTLNIHPVEEEDAATYYCQHSWDLPPTFGGGTKLEIK | 221000 | 176 |  | 
5 | Humanised 3C6 clone VH 2.2/VL 2.2 (antibody, V domains shown, also called 3C6 VH2.2/VL2.2) VH: EVQLVQSGAEVKKPGASVKISCKASGYTFTDYNMDWVKQAPGQRLEWIGDINPHNGGPIYNQKFTGRATLTVDKSASTAYMELSSLRSEDTAVYYCARGELGHWYFDVWGQGTTVTVSS VL: DIVLTQSPASLALSPGERATLSCRASKSVSTSGYSYIHWYQQKPGQAPRLLIYLASNLDSGVPARFSGSGSGTDFTLTISSLEEEDFATYYCQHSRDLPPTFGQGTKLEIK |  |  | binds | 
6 | Humanised 3C6 clone VH 2.2/VL 2.1 (antibody, V domains shown, T0003 heads the columns Heavy chain and Light chain, but the entries are variable domains; also called 3C6 VH2.2/VL2.1) VH: EVQLVQSGAEVKKPGASVKISCKASGYTFTDYNMDWVKQAPGQRLEWIGDINPHNGGPIYNQKFTGRATLTVDKSASTAYMELSSLRSEDTAVYYCARGELGHWYFDVWGQGTTVTVSS VL: DIVLTQSPASLALSPGERATLSCRASKSVSTSGYSYIHWYQQKPGQPPRLLIYLASNLDSGVPARFSGSGSGTDFTLNIHPLEEEDFATYYCQHSRDLPPTFGQGTKLEIK |  |  | binds | 
7 | Humanised 3C6 clone VH 2.2/VL 2.3 (antibody, V domains shown) VH: EVQLVQSGAEVKKPGASVKISCKASGYTFTDYNMDWVKQAPGQRLEWIGDINPHNGGPIYNQKFTGRATLTVDKSASTAYMELSSLRSEDTAVYYCARGELGHWYFDVWGQGTTVTVSS VL: DIVLTQSPATLSLSPGERATLSCRASKSVSTSGYSYIHWYQQKPGQAPRLLIYLASNLDSGVPARFSGSGSGTDFTLTISSLEPEDFATYYCQHSRDLPPTFGQGTKLEIK |  |  | binds | 
8 | Humanised 3C6 clone VH 2.2/VL 2.4 (antibody, V domains shown) VH: EVQLVQSGAEVKKPGASVKISCKASGYTFTDYNMDWVKQAPGQRLEWIGDINPHNGGPIYNQKFTGRATLTVDKSASTAYMELSSLRSEDTAVYYCARGELGHWYFDVWGQGTTVTVSS VL: EIVLTQSPATLSLSPGERATLSCRASKSVSTSGYSYIHWYQQKPGQAPRLLIYLASNLDSGVPARFSGSGSGTDFTLTISSLEPEDFATYYCQHSRDLPPTFGQGTKLEIK |  |  | binds | 
9 | Humanised 3C6 clone VH 2.3/VL 2.2 (antibody, V domains shown) VH: EVQLVQSGAEVKKPGASVKISCKASGYTFTDYNMDWVRQAPGQRLEWIGDINPHNGGPIYNQKFTGRVTLTVDKSASTAYMELSSLRSEDTAVYYCARGELGHWYFDVWGQGTTVTVSS VL: DIVLTQSPASLALSPGERATLSCRASKSVSTSGYSYIHWYQQKPGQAPRLLIYLASNLDSGVPARFSGSGSGTDFTLTISSLEEEDFATYYCQHSRDLPPTFGQGTKLEIK |  |  | binds | 
10 | Humanised 3C6 clone VH 2.3/VL 2.3 (antibody, V domains shown) VH: EVQLVQSGAEVKKPGASVKISCKASGYTFTDYNMDWVRQAPGQRLEWIGDINPHNGGPIYNQKFTGRVTLTVDKSASTAYMELSSLRSEDTAVYYCARGELGHWYFDVWGQGTTVTVSS VL: DIVLTQSPATLSLSPGERATLSCRASKSVSTSGYSYIHWYQQKPGQAPRLLIYLASNLDSGVPARFSGSGSGTDFTLTISSLEPEDFATYYCQHSRDLPPTFGQGTKLEIK |  |  | binds | 
